Results reported in the supplement of paper PMC7877785.
± gives the uncertainty stated by the source.

Experiment: self-splicing fitness, log relative to wild type (ln ratio); higher = more splicing; Tetrahymena group I intron in knt gene, E. coli kanamycin selection, DiMSum; sequences stand for … in CUCUCU…GGAGGGAAAAGUUAUCAGGCAUGCACCUGGUAGCUAGUCUUUAAACCAAUAGAUUGCAUCGGUUUAAAAGGCAAGACCGUCAAAUUGCGGGAAAGGGGUCAACAGCCGUUCAGUACCAAGUCUCAGGGGAAACUUUGAGAUGGCCUUGCAAAGGGUAUGGUAAUAAGCUGACGGACAUGGUCCUAACCACGCAGCCAAGUCCUAAGUCAACAGAUCUUCUGUUGAUAUGGAUGCAGUUCACAGACUAAAUGUCGGUCGGGGAAGAUGUAUUCUUCUCAUAAGAUAUAGUCGGACCUCUCCUUAAUGGGAGCUAGCGGAUGAAGUGAUGCAACACUGGAGCCGCUGGGAACUAAUUUGUAUGCGAAAGUAUAUUGAUUAGUUUUGGAGUACUCGUGGUCG
How it was run: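 Colonies from six replicate transformations of E. coli BL21(DE3) were pooled and amplicon-sequenced on an Illumina HiSeq 2500. The library placed an intron with all eight P1ex-region nucleotides randomised inside the knt kanamycin-resistance gene on pET-22b(+), and cells grew overnight at 37°C or 30°C on LB agar with or without 25 μg/mL kanamycin (plus 100 μg/mL carbenicillin, 50 μM IPTG, 0.2% rhamnose). Fitness is the DiMSum error-weighted combination of wild-type-normalised replicate fold changes, kanamycin versus none.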

Sequence | self-splicing fitness (ln) (30 °C) | self-splicing fitness (ln) (37 °C)
CACGAGCAAUAUUACGUUCC | -2.89 ± 0.34 | -2.15 ± 0.34
CACGAGCAAUAUUACGUUGG | -3.11 ± 0.16 | -1.79 ± 0.14
CACGAGCAAUAUUACGUUGU | -3.37 ± 0.15 | -2.8 ± 0.18
CACUAGCAAUAUUACGAAUG | -1.7 ± 0.075 | -1.01 ± 0.086
CACUAGCAAUAUUACGAGGA | -4.01 ± 0.31 | -1.49 ± 0.15
CACUAGCAAUAUUACGAUUU | -2.4 ± 0.12 | -2.2 ± 0.15
CACUAGCAAUAUUACGCCGA | -2.8 ± 0.21 | -1.49 ± 0.17
CACUAGCAAUAUUACGCGCC | -2.9 ± 0.23 | -1.22 ± 0.22
CACUAGCAAUAUUACGCGGG | -2.48 ± 0.13 | -2.01 ± 0.15
CACUAGCAAUAUUACGCUGU | -3.17 ± 0.14 | -3.3 ± 0.23
CACUAGCAAUAUUACGGAUU | -4.22 ± 0.2 | -2.28 ± 0.12
CACUAGCAAUAUUACGGCCA | -3.1 ± 0.23 | –
CACUAGCAAUAUUACGGCCG | 0.0261 ± 0.086 | -0.0313 ± 0.12
CACUAGCAAUAUUACGGGAC | -3.86 ± 0.21 | -1.7 ± 0.18
CACUAGCAAUAUUACGGGGA | -2.57 ± 0.19 | -1.63 ± 0.17
CACUAGCAAUAUUACGGGGC | -3.4 ± 0.17 | -2.23 ± 0.14
CACUAGCAAUAUUACGUACU | -2.87 ± 0.16 | -2.81 ± 0.19
CACUAGCAAUAUUACGUCAA | -3.77 ± 0.22 | -2.27 ± 0.14
CACUAGCAAUAUUACGUCCG | -0.0671 ± 0.11 | 0.268 ± 0.13
CACUAGCAAUAUUACGUGAU | -3.32 ± 0.12 | -3.21 ± 0.15
CACUAGCAAUAUUACGUUCG | 0.203 ± 0.084 | 0.725 ± 0.11
CACUAGCAAUAUUACGUUGU | -4.22 ± 0.14 | -2.08 ± 0.12
CACUAGCAAUAUUACGUUUU | -2.97 ± 0.12 | -2.4 ± 0.13
CAGAAGCAAUAUUACGAAGG | -1.23 ± 0.12 | -1.1 ± 0.16
CAGAAGCAAUAUUACGACGC | -3 ± 0.14 | -1.28 ± 0.12
CAGAAGCAAUAUUACGAGGA | -4.09 ± 0.4 | -2.01 ± 0.2

Sequence | self-splicing fitness (ln) (30 °C) | self-splicing fitness (ln) (37 °C)
CAGAAGCAAUAUUACGAGGU | -4.11 ± 0.36 | -3 ± 0.32
CAGAAGCAAUAUUACGAUAG | -0.588 ± 0.075 | 0.256 ± 0.093
CAGAAGCAAUAUUACGCAAG | -2.45 ± 0.098 | -1.21 ± 0.092
CAGAAGCAAUAUUACGCCUA | -0.835 ± 0.12 | -0.744 ± 0.093
CAGAAGCAAUAUUACGCGAA | – | -1.94 ± 0.23
CAGAAGCAAUAUUACGCGUG | -4.79 ± 0.27 | -2.62 ± 0.12
CAGAAGCAAUAUUACGCUAU | -3.4 ± 0.16 | -3.04 ± 0.16
CAGAAGCAAUAUUACGGAUU | -3.13 ± 0.12 | -2.47 ± 0.14
CAGAAGCAAUAUUACGGCGA | -1.43 ± 0.15 | -1.5 ± 0.18
CAGAAGCAAUAUUACGGCGG | -0.0667 ± 0.084 | -0.292 ± 0.12
CAGAAGCAAUAUUACGGGAG | -1.6 ± 0.12 | -0.856 ± 0.12
CAGAAGCAAUAUUACGGGGA | -4.87 ± 0.36 | -1.61 ± 0.11
CAGAAGCAAUAUUACGGGGU | -2.98 ± 0.19 | -2.34 ± 0.21
CAGAAGCAAUAUUACGGUAG | -0.817 ± 0.065 | -0.323 ± 0.08
CAGAAGCAAUAUUACGGUCC | -2.94 ± 0.33 | –
CAGAAGCAAUAUUACGUACG | -0.111 ± 0.089 | 0.665 ± 0.14
CAGAAGCAAUAUUACGUAUC | – | -3.17 ± 0.24
CAGAAGCAAUAUUACGUCAC | -3.02 ± 0.36 | -1.05 ± 0.25
CAGAAGCAAUAUUACGUGCU | -2.7 ± 0.17 | -1.23 ± 0.14
CAGAAGCAAUAUUACGUGGA | -2.71 ± 0.18 | -3.1 ± 0.2
CAGAAGCAAUAUUACGUGUU | -4.1 ± 0.18 | -3.45 ± 0.16
CAGAAGCAAUAUUACGUUAG | -0.919 ± 0.077 | -0.262 ± 0.097
CAGCAGCAAUAUUACGAAAC | -3.65 ± 0.23 | –
CAGCAGCAAUAUUACGACCU | -2.57 ± 0.14 | -1.57 ± 0.12
CAGCAGCAAUAUUACGAGCA | -2.5 ± 0.12 | -1.04 ± 0.093
CAGCAGCAAUAUUACGAUCC | -2.11 ± 0.22 | -2.73 ± 0.4

Sequence | self-splicing fitness (ln) (30 °C) | self-splicing fitness (ln) (37 °C)
CAGCAGCAAUAUUACGAUGA | -2.7 ± 0.21 | -1.31 ± 0.14
CAGCAGCAAUAUUACGAUUC | -3.27 ± 0.25 | -1.78 ± 0.16
CAGCAGCAAUAUUACGCACC | -2.66 ± 0.29 | -1.32 ± 0.47
CAGCAGCAAUAUUACGCAGA | -2.32 ± 0.28 | -1.19 ± 0.13
CAGCAGCAAUAUUACGCAGU | -3.81 ± 0.18 | -3.35 ± 0.22
CAGCAGCAAUAUUACGCAUG | -3.11 ± 0.16 | -2.42 ± 0.16
CAGCAGCAAUAUUACGCCAA | -3.43 ± 0.32 | -1.87 ± 0.17
CAGCAGCAAUAUUACGCCGU | -2.74 ± 0.22 | -2.41 ± 0.28
CAGCAGCAAUAUUACGCUAG | -2.8 ± 0.16 | -2.1 ± 0.21
CAGCAGCAAUAUUACGGAAG | -0.307 ± 0.054 | -0.29 ± 0.068
CAGCAGCAAUAUUACGGAGA | -3.3 ± 0.31 | -3.02 ± 0.22
CAGCAGCAAUAUUACGGAUA | -3.18 ± 0.24 | -2.41 ± 0.17
CAGCAGCAAUAUUACGGGAG | -1.2 ± 0.061 | -0.908 ± 0.082
CAGCAGCAAUAUUACGGUAG | -0.155 ± 0.087 | 0.0584 ± 0.11
CAGCAGCAAUAUUACGGUUC | -2.92 ± 0.26 | -1.5 ± 0.17
CAGCAGCAAUAUUACGUAUG | -2.19 ± 0.1 | -2.5 ± 0.15
CAGCAGCAAUAUUACGUCAA | -2.85 ± 0.21 | -3.37 ± 0.3
CAGCAGCAAUAUUACGUUGG | -1.91 ± 0.072 | -0.788 ± 0.084
CAGGAGCAAUAUUACGACCA | – | -1.27 ± 0.31
CAGGAGCAAUAUUACGAGAU | -3.82 ± 0.29 | -3.8 ± 0.39
CAGGAGCAAUAUUACGAGCU | -3.44 ± 0.47 | -2.52 ± 0.41
CAGGAGCAAUAUUACGAGGA | -3.55 ± 0.25 | -3.69 ± 0.29
CAGGAGCAAUAUUACGAGUA | – | -2.34 ± 0.42
CAGGAGCAAUAUUACGAGUU | -3.36 ± 0.43 | –
CAGGAGCAAUAUUACGAUGA | -1.76 ± 0.41 | –
CAGGAGCAAUAUUACGAUUC | – | -1.93 ± 0.38
